Results published in US7279161B2, “Factor IX/factor IXa activating antibodies and antibody derivatives” (Baxter Aktiengesellschaft, priority 1999, dated 2007).

System: FIX/FIXa
Experiment: Western Blot and ELISA reactivity with FIX/FIXa
Format: binding
Protocol: Factor IX and the two activated forms of FIX, FIXaα and FIXaβ (FIX/FIXa(α,β)) were diluted in TBS (25 mM Tris HCl, 150 mM NaCl, pH 7.5) to a final concentration of 2 μg/ml. Nunc Maxisorp ELISA plates were coated with 100 μl FIX/FIXa(α,β) solution according to standard procedures (4° C., overnight) and washed several times with TBST (TBS, 0.1% (v/v) Tween 20). 50 μl hybridoma supernatant was diluted 1:1 with 50 μl TBST/2% BSA and added to the coated ELISA plate. After an incubation period of 2 h at room temperature (RT), plates were washed 4 times with TBST and incubated (2 h, RT) with 100 μl/well of a 1:25000 dilution (in TBST/1% BSA) of an anti-mouse IgG (Fc-specific) peroxidase conjugated antibody (Sigma, #A-0168). Wells were washed 5 times with TBST and finally stained with 100 μl freshly prepared staining solution (10 ml 50 mM sodium citrate, pH 5 supplemented with 100 μl OPD (60 mg OPD/ml) and 10 μl 30% H2O2). The reaction was stopped by the addition of […] H2SO4 and the optical density recorded at 492 nm and 620 nm in a Labsystems iEMS Reader MF™ microtiter plate reader employing GENESIS™ software. […]

B1: #8860: irrelevant monoclonal antibody, negative control (protein)
chain 1: EVQLQQSGPELVKPGASVKISCKASGYAFSSSWMNWVKQRPGQGLEWIGRIYPGNGDTNYNGKFKGKATLTADKSSSTAYMQLSSLTSVDSAVYFCADGNVYYYAMDYWGQGTSVTVSS
chain 2: QIVLTQSPASLAVSLGQRATISCRASKSVSTSGYSYMHWYQQKPGQPPKLLIYLASNLESGVPARFSGSGSGTDFTLNIHPVEEEDAATYYCQHSRELPRTFGGGTKLEIKR
reactivity with FIX/FIXa: does not react with FIX/FIXa
